{"source": "the supplement of paper PMC9170038", "test_system": "MS2 coat protein", "test": "apparent KD of MS2 coat protein; designed switch direction (-1 OFF switch, 1 ON switch): -1; higher = weaker reporter binding", "in_short": "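Transcription of designed RNA switches on Illumina chips was done by stalled E. coli RNA polymerase. SNAP-549-labelled MS2 coat protein was then titrated in doubling steps from 0.7 or 1.5 nM to 3 µM, with steps of 0.8–1.5 h at the lowest and 10–20 min at the highest concentration. The per-design median over clusters of curve-fitted normalised fluorescence is reported as apparent KD.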", "key": {"[1]": {"conditions": "Eterna round: R95, input ligand: microRNA oligo, concentration not stated"}, "[2]": {"conditions": "input ligand: microRNA oligo, concentration not stated"}, "[3]": {"conditions": "Eterna round: R95, input ligand: FMN 200 uM"}, "[4]": {"conditions": "Eterna round: R95, input ligand: none"}}, "data": [{"sequence": "GCCCAGCUAGGAUAUCGCACUGCAGACAUGAGGAUCACCCAUGUGAUGAGGUCUGAAUCCCGAGAAGGAGCAUGGA [Enlain] (puzzle: Exclusion 5)", "values": [{"measurement": "apparent KD of MS2 coat protein", "setting": "[1]", "value": 15.8, "unit": "nM"}]}, {"sequence": "AGUAACUAUCACGAAAGUGAUAGUUACAGCAAGUGAUAAACAUGAGGAUCACCCAUGUCCUCAUUUGCUCGUCUUAU [Sensor 3 - 12] (Eterna round: R96, puzzle: Sensor v3, turn-off variant 2)", "values": [{"measurement": "apparent KD of MS2 coat protein", "setting": "input ligand: FMN 200 uM", "value": 15, "unit": "nM"}, {"measurement": "apparent KD of MS2 coat protein", "setting": "[2]", "value": 386, "unit": "nM"}, {"measurement": "apparent KD of MS2 coat protein", "setting": "input ligand: none", "value": 17.2, "unit": "nM"}]}, {"sequence": "GGAGCGAUUCUCUUAGCUGACAUGAGGAUCACCCAUGUAUGCAAGCUCUUAUUUUGCUCGUCUUACCGGGAAUUGCU [Uslainar] (puzzle: Sensor v3, turn-off variant 1)", "values": [{"measurement": "apparent KD of MS2 coat protein", "setting": "[3]", "value": 14.8, "unit": "nM"}, {"measurement": "apparent KD of MS2 coat protein", "setting": "[1]", "value": 18.5, "unit": "nM"}, {"measurement": "apparent KD of MS2 coat protein", "setting": "[4]", "value": 13.2, "unit": "nM"}]}, {"sequence": "AGUCAGACGGUAGGAUAUCCAUAUCGAGUGACCCUUUCAUAACAUGAGGAUCACCCAUGUCGGUGGGAGAAGGGCCGUACGGCG [JL ViennaUCT Atra mod 5] (Eterna round: R96, puzzle: Exclusion NG 2)", "values": [{"measurement": "apparent KD of MS2 coat protein", "setting": "input ligand: FMN 200 uM", "value": 226, "unit": "nM"}, {"measurement": "apparent KD of MS2 coat protein", "setting": "[2]", "value": 93.3, "unit": "nM"}, {"measurement": "apparent KD of MS2 coat protein", "setting": "input ligand: none", "value": 129, "unit": "nM"}]}, {"sequence": "AGUCGGCGAGGAUAUACAUGAGGAUCACCCAUGUGGAAUCCUAGACCUGUAGGUCCAUGUAGAAGGCGCUGACA [Exclusion 3 - Was a mod at one point v.2] (puzzle: Exclusion 3)", "values": [{"measurement": "apparent KD of MS2 coat protein", "setting": "[3]", "value": 32.2, "unit": "nM"}, {"measurement": "apparent KD of MS2 coat protein", "setting": "[1]", "value": 212, "unit": "nM"}, {"measurement": "apparent KD of MS2 coat protein", "setting": "[4]", "value": 192, "unit": "nM"}]}, {"sequence": "GAUUAUGCGAGCUUUAGGGACAUGAGGAUCACCCAUGUUCGUCUUAUUGGUCUAGGUGCACUAACAUACCUAAAUCU [JMF 36] (puzzle: Sensor v3, turn-off variant 1)", "values": [{"measurement": "apparent KD of MS2 coat protein", "setting": "[3]", "value": 22.3, "unit": "nM"}, {"measurement": "apparent KD of MS2 coat protein", "setting": "[1]", "value": 33.7, "unit": "nM"}, {"measurement": "apparent KD of MS2 coat protein", "setting": "[4]", "value": 23.6, "unit": "nM"}]}, {"sequence": "GACCAGGUAGGAUAUGCAGGGUCGGACUUGAGGAUCACCCAAGUGGCCAAAGUGCGUCCCGCAGAAGGGCCGAAAA [Isisusge] (Eterna round: R97, puzzle: Exclusion 5)", "values": [{"measurement": "apparent KD of MS2 coat protein", "setting": "input ligand: FMN 200 uM", "value": 215, "unit": "nM"}, {"measurement": "apparent KD of MS2 coat protein", "setting": "input ligand: none", "value": 1230, "unit": "nM"}]}, {"sequence": "UGAGGACAUGAGGAUCACCCAUGUAAGGAUAUGCGGAGAGCUUGGAGAGGUUGAGGAGGCAGAAGGUACAGGAC [JR_Exclu1_Sub048] (puzzle: Exclusion 1)", "values": [{"measurement": "apparent KD of MS2 coat protein", "setting": "[3]", "value": 47.7, "unit": "nM"}, {"measurement": "apparent KD of MS2 coat protein", "setting": "[1]", "value": 48.3, "unit": "nM"}, {"measurement": "apparent KD of MS2 coat protein", "setting": "[4]", "value": 57, "unit": "nM"}]}, {"sequence": "UCGCUCCGUGUAGGAUAUCGCCGUACUAUGCGGCGAGAAGGACAUGAGGAUCACCCAUGUAUGUUAUUAUCACGCGUGGCGCAA [Design 61] (Eterna round: R96, puzzle: Exclusion NG 1)", "values": [{"measurement": "apparent KD of MS2 coat protein", "setting": "input ligand: FMN 200 uM", "value": 17.9, "unit": "nM"}, {"measurement": "apparent KD of MS2 coat protein", "setting": "[2]", "value": 13.4, "unit": "nM"}, {"measurement": "apparent KD of MS2 coat protein", "setting": "input ligand: none", "value": 16.2, "unit": "nM"}]}, {"sequence": "CAUUUGUAAGGAUAUGCACCGAUCUCCGAAAGGAGAUCGGUGCAGAAGGUACAUGAGGAUCACCCAUGUUGAUG [Mod of Brourd 11 - Jieux - Exclusion 4] (Eterna round: R97, puzzle: Exclusion 4)", "values": [{"measurement": "apparent KD of MS2 coat protein", "setting": "input ligand: FMN 200 uM", "value": 218, "unit": "nM"}, {"measurement": "apparent KD of MS2 coat protein", "setting": "input ligand: none", "value": 33.6, "unit": "nM"}]}, {"sequence": "GAAAAGGUAGAGGAUAUUUCAGAUCAAAGCUGCAAAGAAGGCUGCACAUGAGGAUCACCCAUGUGGUCUUAAAA [Mod of Quesina 8 - Jieux - Exclusion 6] (Eterna round: R97, puzzle: Exclusion 6)", "values": [{"measurement": "apparent KD of MS2 coat protein", "setting": "input ligand: FMN 200 uM", "value": 62.3, "unit": "nM"}, {"measurement": "apparent KD of MS2 coat protein", "setting": "input ligand: none", "value": 20.9, "unit": "nM"}]}, {"sequence": "AAAGGGAAUGAGGAUAUCGUAUUGGAUAUAGUGCGAGAAGGCAUUACAUGAGGAUCACCCAUGUUUUGUUGGGA [JR_Ex6_Sub006] (Eterna round: R97, puzzle: Exclusion 6)", "values": [{"measurement": "apparent KD of MS2 coat protein", "setting": "input ligand: FMN 200 uM", "value": 74.4, "unit": "nM"}, {"measurement": "apparent KD of MS2 coat protein", "setting": "input ligand: none", "value": 33.9, "unit": "nM"}]}, {"sequence": "UGCUACGGAGGAUAUACAUGAGGAUCACCCAUGUGUGAGAUUUGGCCGAGAGGCCAGUGUAGAAGGCCGUAGCU [jl-ex3-4.19 jl mod] (Eterna round: R97, puzzle: Exclusion 3)", "values": [{"measurement": "apparent KD of MS2 coat protein", "setting": "input ligand: FMN 200 uM", "value": 615, "unit": "nM"}, {"measurement": "apparent KD of MS2 coat protein", "setting": "input ligand: none", "value": 193, "unit": "nM"}]}, {"sequence": "ACAUGUCAUCGAGGAUAUUGGACACAUGAGGAUCACCCAUGUACCCGGAGGCUUUACUAUGAGUUCGAGAAGGCGAUGUACAUG [Ex NG2 #73] (Eterna round: R96, puzzle: Exclusion NG 2)", "values": [{"measurement": "apparent KD of MS2 coat protein", "setting": "input ligand: FMN 200 uM", "value": 83.7, "unit": "nM"}, {"measurement": "apparent KD of MS2 coat protein", "setting": "[2]", "value": 42.4, "unit": "nM"}, {"measurement": "apparent KD of MS2 coat protein", "setting": "input ligand: none", "value": 54.6, "unit": "nM"}]}]}
